{"source": "patent US20260193363A1", "binders": {"B1": {"name": "monoclonal antibody 11G3 (antibody, V domains shown)", "VH": "QVQLKQSGPSLVQPSQSLSITCTVSGFSLTNYGVHWVRQSPGKGLEWLGVMWRGGRTDYNAAFMSRLSITKDNSRSQVFFKMNSLQTDDAAIYYCAKNGPFGNFAGYWGQGTLVTVST", "VL": "DIVMSQSPSSLPVSVGEKVSLTCKSSRSLLDNQKHYLAWYQQKPGQSPKLLIYWASTRESGVPDRFTGSGSGTEFTLTISSVKAEDLAVYYCQQFYNYPYTFGGGTKLEIK"}, "B2": {"name": "monoclonal antibody 40H3 (antibody, V domains shown)", "VH": "QVQLKQSGPGLVQPSQSLSITCTVSGFSLTNYGIHWLRQSPGKGLEWLGMMWRGGGTDYNAAFISRLTITKDTSKSQVFFRMNNLQTNDTAIYYCARKGVGMGLGYWGQGTSVTVSS", "VL": "DIQMTQSPASQSASLGESVTITCLASQTIGTWVAWYQQKPGRSPQLLIYGATNLADGVPSRFSGSGSGTKFSFKISSLQAEDFVSYYCQQLYSNPYTFGGGTKLEIK"}, "B3": {"name": "40H3 MMAE antibody drug conjugate (antibody, V domains shown)", "VH": "B2 VH", "VL": "B2 VL"}, "B4": {"name": "40H3 DM1 antibody drug conjugate (antibody, V domains shown)", "VH": "B2 VH", "VL": "B2 VL"}}, "key": {"[1]": {"target": "EGFRvIII on F98npEGFRvIII cells (rat glioma F98 transfected with nonphosphorylated EGFRvIII)", "assay": "flow cytometry, antibodies added at 2 µg/ml, F98-npEGFRvIII cells"}, "[2]": {"target": "EGFR and EGFRvIII on GBM39 cells (patient derived xenograft glioblastoma line)", "assay": "flow cytometry on GBM39 cells, antibody at 20 µg/ml"}, "[3]": {"target": "EGFR and EGFRvIII on GBM39 cells (patient derived xenograft glioblastoma line)", "assay": "flow cytometry on GBM39 cells, antibody at 2 µg/ml"}, "[4]": {"target": "EGFR and EGFRvIII on GBM39 cells (patient derived xenograft glioblastoma line)", "assay": "flow cytometry on GBM39 cells, antibody at 0.2 µg/ml"}, "[5]": {"target": "EGFR loop peptide, His-tagged (EGFRlp-HIS) (human)", "assay": "BLI (Octet Red96), His-tagged antigen on Ni-NTA biosensors, antibody in solution, 30 C"}, "[6]": {"target": "EGFR loop peptide, His-tagged (EGFRlp-HIS) (human)", "assay": "BLI (Octet Red96), His-tagged antigen on Ni-NTA biosensors, conjugate in solution, 30 C"}}, "data": [{"binder": "B1", "values": [{"measurement": "Median : PE-A", "setting": "[1]", "value": 1080}]}, {"binder": "B2", "values": [{"measurement": "median fluorescent intensity", "setting": "[2]", "value": 8600}, {"measurement": "median fluorescent intensity", "setting": "[3]", "value": 10700}, {"measurement": "median fluorescent intensity", "setting": "[4]", "value": 9450}, {"measurement": "Kd", "setting": "[5]", "value": 1.11, "unit": "nM"}, {"measurement": "koff", "setting": "[5]", "value": "6.07e-05", "unit": "s⁻¹"}, {"measurement": "kon", "setting": "[5]", "value": 54900, "unit": "M⁻¹ s⁻¹"}]}, {"binder": "B3", "values": [{"measurement": "Kd", "setting": "[6]", "value": 0.0846, "unit": "nM"}, {"measurement": "koff", "setting": "[6]", "value": "2.24e-05", "unit": "s⁻¹"}, {"measurement": "kon", "setting": "[6]", "value": 265000, "unit": "M⁻¹ s⁻¹"}]}, {"binder": "B4", "values": [{"measurement": "Kd", "setting": "[6]", "value": 0.442, "unit": "nM"}, {"measurement": "koff", "setting": "[6]", "value": "8.95e-05", "unit": "s⁻¹"}, {"measurement": "kon", "setting": "[6]", "value": 202000, "unit": "M⁻¹ s⁻¹"}]}]}
